From US20090018070A1 (LABORATOIRES SERONO, published 2009)
Each block holds one binder with its values, some of them ahead of it.

Biological target: T1, human FSH receptor (human, UniProt P23945 18-695)
T1 sequence (looked up): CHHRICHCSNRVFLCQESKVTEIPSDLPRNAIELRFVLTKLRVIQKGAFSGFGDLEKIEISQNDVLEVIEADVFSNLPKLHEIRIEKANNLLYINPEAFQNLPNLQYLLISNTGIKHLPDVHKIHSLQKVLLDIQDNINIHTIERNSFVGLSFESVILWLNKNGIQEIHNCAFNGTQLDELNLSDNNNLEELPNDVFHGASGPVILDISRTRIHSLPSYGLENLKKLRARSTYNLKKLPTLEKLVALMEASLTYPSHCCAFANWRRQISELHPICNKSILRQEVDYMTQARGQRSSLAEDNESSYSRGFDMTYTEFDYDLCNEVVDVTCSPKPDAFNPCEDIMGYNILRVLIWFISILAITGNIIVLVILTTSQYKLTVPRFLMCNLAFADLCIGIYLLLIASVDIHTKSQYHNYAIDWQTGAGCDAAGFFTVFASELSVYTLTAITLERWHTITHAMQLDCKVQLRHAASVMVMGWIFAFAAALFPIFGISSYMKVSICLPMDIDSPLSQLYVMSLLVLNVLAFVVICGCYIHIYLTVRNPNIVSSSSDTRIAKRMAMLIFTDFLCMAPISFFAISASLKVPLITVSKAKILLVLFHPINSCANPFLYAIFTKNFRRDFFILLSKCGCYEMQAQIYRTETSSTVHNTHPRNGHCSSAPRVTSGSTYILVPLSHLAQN
Assay: cell-based or functional assay

EC50 of cAMP production in CHO-FSHR cells: 0.258 nM
B1: GNRT mutant FSH (Clone 10C, alpha GNRT / beta GM1) (ligand)
chain 1: not shown
chain 2: NSCELTNITIAIEKEECRFCISINTTWCAGYCYTRDLVYKDPARPKIQKTCTFKNLTYETVRVPGCAHHADSLYTYPVATQCHCGKCDSDSTDCTVRGLGPSYCSFGEMKE

EC50 of cAMP production in CHO-FSHR cells: 0.278 nM
B2: GNFT mutant FSH (Clone 11C, alpha GNFT / beta GM1) (ligand)
chain 1: not shown
chain 2: B1 chain 2
